The values below come from patent US20230404098A1.

In the assay the target is Bovine kappa casein purified from cow's milk (Sigma Aldrich) (bovine (cow)) (UniProt P02668). The assay is described as follows: cell-based or functional assay.
UniProt P02668, sequence (P02668 22-190): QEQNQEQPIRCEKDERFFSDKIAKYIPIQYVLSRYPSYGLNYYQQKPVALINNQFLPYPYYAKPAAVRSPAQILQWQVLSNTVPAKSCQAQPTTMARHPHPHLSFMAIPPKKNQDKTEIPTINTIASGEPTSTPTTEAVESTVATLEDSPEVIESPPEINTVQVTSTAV

Regarding “Recombinantly-produced N-terminally 6xhistidine-tagged bovine (cow) alpha-s1-casein (lacking PTMs)”, the Average A450 (turbidity of the micellar colloid) amounted to 0.13 A450.
